B1: mouse tissue transglutaminase 2 C-terminal D3D4 domains (mTG2 D3D4) [modified: biotin on the AVI-tag; biotin on the AVI-tag] [mouse] / mouse full-length GPR56 (GPR56 FL), wild type, on HEK293T cells [mouse] (parent complex)
chain 1: TGVAMRIRVGDSMSMGNDFDVFAHIGNDTSETRECRLLLCARTVSYNGVLGPECGTEDINLTLDPYSENSIPLRILYEKYSGCLTESNLIKVRGLLIEPAANSYLLAERDLYLENPEIKIRVLGEPKQNRKLVAEVSLKNPLSDPLYDCIFTVEGAGLTKEQKSVEVSDPVPAGDLVKARVDLFPTDIGLHKLVVNFQCDKLKSVKGYRNVIIGPA
chain 2: GSPREDFRFCGQRNQTQQSTLHYDQSSEPHIFVWNTEETLTIRAPFLAAPDIPRFFPEPRGLYHFCLYWSRHTGRLHLRYGKHDYLLSSQASRLLCFQKQEQSLKQGAPLIATSVSSWQIPQNTSLPGAPSFIFSFHNAPHKVSHNASVDMCDLKKELQQLSRYLQHPQKAAKRPTAAFISQQLQSLESKLTSVSFLGDTLSFEEDRVNATVWKLPPTAGLEDLHIHSQKEEEQSEVQAYSLLLPRAVFQQTRGRRRDDAKRLLVVDFSSQALFQDKNSSQVLGEKVLGIVVQNTKVTNLSDPVVLTFQHQPQPKNVTLQCVFWVEDPASSSTGSWSSAGCETVSRDTQTSCLCNHLTYFAVLMVSSTEVEATHKHYLTLLSYVGCVISALACVFTIAAYLCSRRKSRDYTIKVHMNLLSAVFLLDVSFLLSEPVALTGSEAACRTSAMFLHFSLLACLSWMGLEGYNLYRLVVEVFGTYVPGYLLKLSIVGWGFPVFLVTLVALVDVNNYGPIILAVRRTPERVTYPSMCWIRDSLVSYVTNLGLFSLVFLFNLAMLATMVVQILRLRPHSQNWPHVLTLLGLSLVLGLPWALVFFSFASGTFQLVILYLFSIITSFQGFLIFLWYWSMRFQAQGGPSPLKNNSDSAKLPISSGSTSSSRI

Variants of: B1
Test: flow cytometry on cells; 5 nM TG2 D3D4 (tetramerized); GPR56 FL constructs expressed on HEK293T cells; n = 3; parent: 1; read off a plot

Point of comparison: chain 2 R79D, ratio to parent ~0.27. Against it:
- chain 2 R8E — higher, ~4.7
- chain 2 A112R, chain 2 S114R — higher, ~5.3
- chain 2 Q12A — higher, ~0.69
